# According to the supplement of paper PMC10567573:
# B1: PDS5B (parent)
# chain: IYKKYALQSAAGKDAAKQIAWIKD
# B2: TSN (parent)
# chain: FLAAEQDIREEIRKVVQSLEQTAR
# Variants of: B1
# Assay: protein stability index of a GFP-peptide fusion (GPS, HEK-293T) (PSI 1-6); higher = more stable
# Settings: c terminus: a fixed tail appended
# 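Note: lentivirally expressed fusions sorted by FACS into six bins by GFP to DsRed ratio, PSI derived from sequencing read proportions per bin multiplied by bin number.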
row,Variant,protein stability index
1,IYHKYALQSAAGKDAAKQIAWIKD [K3H],2.36
2,IYKKIALQSAAGKDAAKQIAWIKD [Y5I],2.26
3,IYKKRALQSAAGKDAAKQIAWIKD [Y5R],2.43
4,IYKKAALQSAAGKDAAKQIAWIKD [Y5A],2.78
5,IYKKWALQSAAGKDAAKQIAWIKD [Y5W],1.98
6,IYKKDALQSAAGKDAAKQIAWIKD [Y5D],3.79
7,IYKKCALQSAAGKDAAKQIAWIKD [Y5C],1.75
8,IYKKFALQSAAGKDAAKQIAWIKD [Y5F],1.92
9,IYKKSALQSAAGKDAAKQIAWIKD [Y5S],2.65
10,IYKKVALQSAAGKDAAKQIAWIKD [Y5V],2.89
11,IYKKHALQSAAGKDAAKQIAWIKD [Y5H],2.46
12,IYKKGALQSAAGKDAAKQIAWIKD [Y5G],2.82
13,IYKKQALQSAAGKDAAKQIAWIKD [Y5Q],2.99
14,IYKKTALQSAAGKDAAKQIAWIKD [Y5T],3.36
15,IYKKKALQSAAGKDAAKQIAWIKD [Y5K],2.93
16,IYKKMALQSAAGKDAAKQIAWIKD [Y5M],1.91
17,IYKKPALQSAAGKDAAKQIAWIKD [Y5P],3.63
18,IYKKEALQSAAGKDAAKQIAWIKD [Y5E],3.09
19,IYKKNALQSAAGKDAAKQIAWIKD [Y5N],2.93
20,IYKKLALQSAAGKDAAKQIAWIKD [Y5L],2.36
21,IYKKYALQSEAGKDAAKQIAWIKD [A10E],2.38

row,Variant,protein stability index
1,IYKKYALQSCAGKDAAKQIAWIKD [A10C],1.72
2,IYKKYALQSHAGKDAAKQIAWIKD [A10H],1.84
3,IYKKYALQSFAGKDAAKQIAWIKD [A10F],1.37
4,IYKKYALQSDAGKDAAKQIAWIKD [A10D],2.53
5,IYKKYALQSGAGKDAAKQIAWIKD [A10G],1.71
6,IYKKYCLQSAAGKDAAKQIAWIKD [A6C],1.85
7,IYKKYHLQSAAGKDAAKQIAWIKD [A6H],1.97
8,IYKKYDLQSAAGKDAAKQIAWIKD [A6D],2.32
9,IYKKYWLQSAAGKDAAKQIAWIKD [A6W],2
10,IYKKYYLQSAAGKDAAKQIAWIKD [A6Y],1.52
11,IYKKYPLQSAAGKDAAKQIAWIKD [A6P],3.02
12,IYKKYQLQSAAGKDAAKQIAWIKD [A6Q],2.85
13,IYKKYVLQSAAGKDAAKQIAWIKD [A6V],1.82
14,IYKKYFLQSAAGKDAAKQIAWIKD [A6F],2.49
15,IYKKYILQSAAGKDAAKQIAWIKD [A6I],2.12
16,IYKKYSLQSAAGKDAAKQIAWIKD [A6S],2.49
17,IYKKYLLQSAAGKDAAKQIAWIKD [A6L],1.86
18,IYKKYKLQSAAGKDAAKQIAWIKD [A6K],2.18
19,IYKKYRLQSAAGKDAAKQIAWIKD [A6R],2.55
20,IYKKYGLQSAAGKDAAKQIAWIKD [A6G],2.88
21,IYKKYELQSAAGKDAAKQIAWIKD [A6E],3.2

row,Variant,protein stability index
1,IYKKYMLQSAAGKDAAKQIAWIKD [A6M],1.8
2,IYKKYTLQSAAGKDAAKQIAWIKD [A6T],2.39
3,IYKKYNLQSAAGKDAAKQIAWIKD [A6N],2.18
4,IFKKYALQSAAGKDAAKQIAWIKD [Y2F],1.67
5,IHKKYALQSAAGKDAAKQIAWIKD [Y2H],3.02
6,IGKKYALQSAAGKDAAKQIAWIKD [Y2G],3.38
7,ISKKYALQSAAGKDAAKQIAWIKD [Y2S],2.84
8,INKKYALQSAAGKDAAKQIAWIKD [Y2N],2.98
9,IKKKYALQSAAGKDAAKQIAWIKD [Y2K],2.87
10,IMKKYALQSAAGKDAAKQIAWIKD [Y2M],4.12
11,IPKKYALQSAAGKDAAKQIAWIKD [Y2P],3.19
12,ITKKYALQSAAGKDAAKQIAWIKD [Y2T],2.98
13,IAKKYALQSAAGKDAAKQIAWIKD [Y2A],2.32
14,IEKKYALQSAAGKDAAKQIAWIKD [Y2E],3.9
15,IDKKYALQSAAGKDAAKQIAWIKD [Y2D],3.75
16,IIKKYALQSAAGKDAAKQIAWIKD [Y2I],1.77
17,IVKKYALQSAAGKDAAKQIAWIKD [Y2V],2.27
18,IWKKYALQSAAGKDAAKQIAWIKD [Y2W],2.32
19,IRKKYALQSAAGKDAAKQIAWIKD [Y2R],2.38
20,IQKKYALQSAAGKDAAKQIAWIKD [Y2Q],2.5
21,ILKKYALQSAAGKDAAKQIAWIKD [Y2L],2.34

row,Variant,protein stability index
1,ICKKYALQSAAGKDAAKQIAWIKD [Y2C],2.96
2,IYKKYATQSAAGKDAAKQIAWIKD [L7T],2.63
3,IYKKYAEQSAAGKDAAKQIAWIKD [L7E],2.76
4,IYKKYAAQSAAGKDAAKQIAWIKD [L7A],2.5
5,IYKKYAMQSAAGKDAAKQIAWIKD [L7M],2.32
6,IYKKYAWQSAAGKDAAKQIAWIKD [L7W],1.69
7,IYKKYAHQSAAGKDAAKQIAWIKD [L7H],2.6
8,IYKKYASQSAAGKDAAKQIAWIKD [L7S],2.68
9,IYKKYAVQSAAGKDAAKQIAWIKD [L7V],2.32
10,IYKKYADQSAAGKDAAKQIAWIKD [L7D],3.16
11,IYKKYAFQSAAGKDAAKQIAWIKD [L7F],1.68
12,IYKKYANQSAAGKDAAKQIAWIKD [L7N],2.81
13,IYKKYAGQSAAGKDAAKQIAWIKD [L7G],2.42
14,IYKKYAYQSAAGKDAAKQIAWIKD [L7Y],2.04
15,IYKKYAIQSAAGKDAAKQIAWIKD [L7I],1.95
16,IYKKYAPQSAAGKDAAKQIAWIKD [L7P],2.92
17,IYKKYAQQSAAGKDAAKQIAWIKD [L7Q],3.06
18,IYKKYARQSAAGKDAAKQIAWIKD [L7R],2.3
19,IYKKYACQSAAGKDAAKQIAWIKD [L7C],1.93
20,IYKKYAKQSAAGKDAAKQIAWIKD [L7K],2.55

# Variants of: B2
# Assay: as above
# Settings: c terminus: a fixed tail appended
row,Variant,protein stability index
1,FLAAEQDIREEIRKVVQSLEQTAW [R24W],1.69
2,FLAAEQDIREEIRKVVQSLEQTAL [R24L],2.49
3,FLAAEQDIREEIRKVVQSLEQTAN [R24N],2.21
4,FLAAEQDIREEIRKVVQSLEQTAY [R24Y],1.94
5,FLAAEQDIREEIRKVVQSLEQTAQ [R24Q],1.74
6,FLAAEQDIREEIRKVVQSLEQTAT [R24T],2.08
7,FLAAEQDIREEIRKVVQSLEQTAS [R24S],2.16
8,FLAAEQDIREEIRKVVQSLEQTAV [R24V],1.7
9,FLAAEQDIREEIRKVVQSLEQTAK [R24K],1.7
10,FLAAEQDIREEIRKVVQSLEQTAM [R24M],2.68
11,FLAAEQDIREEIRKVVQSLEQTAP [R24P],2.28
